One molecule from patent US20170281788A1 can be followed below.

The target in the assay is insulin receptor (IR-B), P06213. The assay is described as follows: cell-based or functional assay.

B1: GLP-1/insulin fusion GLP-DP8 (ligand)
chain: HAEGTFTSDVSSYLEEQAAREFIAWLVRGRGGPEHLCGAHLVDALYLVCGDRGFYFNDRGAGSSSRRGIVDECCHRSCDLRRLENYCN
Regarding B1, the potency (activity at the insulin subtype B receptor) was 9.9.
